The supplement of paper PMC10724198
± gives the standard deviation of the averaged measurements.

Test system: Saccharomyces cerevisiae
Experiment: protein stability index of tFT-peptide fusion (C-terminal peptide) (PSI (0-1 scale)); higher = more stable (slower turnover)
Settings: genetic background: das1 deletion; temperature: 37 C
Description: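 MPS profiling in S. cerevisiae of the tFT-X12 degron library: putative degron peptides plus stable controls, 12 aa, fused to the C-terminus of a sfGFP-mCherry timer. Cells are FACS-sorted into 8 mCherry/sfGFP bins and deep-sequenced. PSI runs from 0 (unstable) to 1 (stable). Backgrounds are wild type, das1Δ and doa10Δ at 30 °C, and wild type, das1Δ, cdc34-1 and cdc53-1 at 37 °C; 2-3 technical replicates each.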
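Note: PSI is a weighted mean of sequencing reads over stability bins, variants kept only with over 10 reads, mCherry proximal and sfGFP distal, peptide attached via GGGS linker.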

| Sequence | protein stability index |
| --- | --- |
| ACSRKPIWVTWL | 0.732 ± 0.016 |
| AFLLVLFCCVSC | 0.3459 ± 0.0017 |
| AFLWSLFVFFRF | 0.355 ± 0.0011 |
| AFVVPLFLCCCG | 0.2768 ± 0.0025 |
| AFYLCLYFMPVS | 0.503 ± 0.012 |
| AGAFRIVWWALR | 0.711 ± 0.0098 |
| ALFLLWVVMHDV | 0.421 ± 0.018 |
| ALLWEFVPCSVR | 0.56 ± 0.0061 |
| ALRGLWFPFSCL | 0.8093 ± 0.0029 |
| ALRLPPPPFSLY | 0.72 ± 0.035 |
| ALSGLARFIVCH | 0.4268 ± 0.0034 |
| ALVGEVLWFQLV | 0.749 ± 0.013 |
| APLLPPALALTC | 0.5268 ± 0.0035 |
| APPSFPPLLLLS | 0.71 ± 0.016 |
| AQCRGGGLSGVG | 0.615 ± 0.014 |
| ARGVAAAFVSGF | 0.746 ± 0.016 |
| ARRGHNCAAVFL | 0.7447 ± 0.0047 |
| ARTWVVLLICGH | 0.563 ± 0.04 |
| ASWRYMFPVTLG | 0.685 ± 0.031 |
| AVCVVVMAVFVG | 0.417 ± 0.012 |
| CASVCCFFAWIV | 0.5941 ± 0.0019 |
| CCVFFLLCLSLF | 0.469 ± 0.023 |
| CFFGFRAGLFLG | 0.754 ± 0.052 |
| CFFVSLFFYIDC | 0.392 ± 0.0061 |

| Sequence | protein stability index |
| --- | --- |
| CFGSALLKCWLC | 0.7708 ± 0.0038 |
| CFLSWSLRFFIL | 0.554 ± 0.034 |
| CFVRCFVSIRLF | 0.3093 ± 0.0021 |
| CGGLFDVALGVG | 0.522 ± 0.011 |
| CGGVQVWRVKVV | 0.722 ± 0.0077 |
| CGSFWVNVLCAV | 0.497 ± 0.01 |
| CILYLSWIIFRA | 0.343 ± 0.0091 |
| CLCLICFLCWFA | 0.514 ± 0.0052 |
| CLLDVVMVVERG | 0.4016 ± 0.0028 |
| CPMFVKFFFCLY | 0.508 ± 0.019 |
| CRGLSWRMITCL | 0.6459 ± 0.00088 |
| CRLRYSILWFRL | 0.309 ± 0.032 |
| CRRQLKVLKSMS | 0.6892 ± 0.0061 |
| CSFHFSLFFLRV | 0.4589 ± 0.0031 |
| CSRVVGLFFLVV | 0.649 ± 0.042 |
| CVCLWCFLVWAR | 0.4581 ± 0.0023 |
| CVCPFCVWVSCL | 0.752 ± 0.0091 |
| CVSFFRCLFLIV | 0.3805 ± 0.00051 |
| CWYVCSFWPYVV | 0.69 ± 0.0077 |
| DAGSSYRFFRFI | 0.739 ± 0.0078 |
| DFFTSFSLFFFL | 0.736 ± 0.008 |
| DLIGSVRRLFCV | 0.728 ± 0.017 |
| DLLKAILKIKSL | 0.7476 ± 0.0011 |
| DLQTVGLTRFIV | 0.714 ± 0.011 |

| Sequence | protein stability index |
| --- | --- |
| DLRRYRTLIPCK | 0.4805 ± 0.0034 |
| DPKQVRIQSSWL | 0.723 ± 0.013 |
| DVLLVVVLGRFL | 0.5481 ± 0.0036 |
| DVPLFLPLPVSV | 0.452 ± 0.015 |
| ELDVRPMVFLVA | 0.4943 ± 0.0028 |
| ESRDRRVGIANW | 0.77 ± 0.0086 |
| FACLTPFCLCLT | 0.5742 ± 0.0044 |
| FALFCFVIFMSR | 0.398 ± 0.034 |
| FAVTRVHLACWG | 0.493 ± 0.0079 |
| GFLGMFFFWFAL | 0.635 ± 0.011 |
| GGGGMGRRVGVG | 0.4202 ± 0.0022 |
| LCLPLYIRILSF | 0.18258 ± 1.6e-05 |
| LPPTPPLSPPPH | 0.5935 ± 0.0017 |
| LSPRPPAPYYSP | 0.725 ± 0.014 |
| PSPHRAPPGGHP | 0.7271 ± 0.0067 |
| RKKIRTYINENV | 0.766 ± 0.05 |
| RPPPTPRSVLLN | 0.71 ± 0.038 |
| SVPCWVFLFCLA | 0.462 ± 0.02 |
| TWGGGRVSLGGG | 0.4176 ± 0.0019 |
| VCNSIPLTPPPA | 0.716 ± 0.015 |
| VSGITLPFLMFH | 0.458 ± 0.012 |
| VSGSFRVCFRVW | 0.608 ± 0.015 |
| VWWWGGVGWLMV | 0.625 ± 0.025 |
| YVLLDFFFFFLV | 0.356 ± 0.043 |

Same assay, conditions: genetic background: doa10 deletion; temperature: 30 C

| Sequence | protein stability index |
| --- | --- |
| AAVQVCVLLLLL | 0.302 ± 0.0072 |
| ACSRKPIWVTWL | 0.259 ± 0.0057 |
| AFLLVLFCCVSC | 0.229 ± 0.0086 |
| AFLWSLFVFFRF | 0.421 ± 0.017 |
| AFVVPLFLCCCG | 0.184 ± 0.014 |
| AFYLCLYFMPVS | 0.358 ± 0.032 |
| AGAFRIVWWALR | 0.586 ± 0.02 |
| ALFLLWVVMHDV | 0.195 ± 0.024 |
| ALLWEFVPCSVR | 0.3287 ± 0.0015 |
| ALRGLWFPFSCL | 0.168 ± 0.032 |
| ALRLPPPPFSLY | 0.174 ± 0.0065 |
| ALSGLARFIVCH | 0.2054 ± 0.0015 |
| ALVGEVLWFQLV | 0.317 ± 0.0039 |
| APLLPPALALTC | 0.3512 ± 0.00062 |
| APPSFPPLLLLS | 0.254 ± 0.018 |
| AQCRGGGLSGVG | 0.57 ± 0.013 |
| ARGVAAAFVSGF | 0.661 ± 0.023 |
| ARRGHNCAAVFL | 0.65 ± 0.022 |
| ARTWVVLLICGH | 0.28 ± 0.0056 |
| ASWRYMFPVTLG | 0.383 ± 0.021 |
| AVCVVVMAVFVG | 0.293 ± 0.022 |
| CASVCCFFAWIV | 0.299 ± 0.017 |
| CCVFFLLCLSLF | 0.353 ± 0.012 |
| CFFGFRAGLFLG | 0.176 ± 0.002 |
| CFFVSLFFYIDC | 0.191 ± 0.014 |

| Sequence | protein stability index |
| --- | --- |
| CFGSALLKCWLC | 0.299 ± 0.002 |
| CFLSWSLRFFIL | 0.132 ± 0.0019 |
| CFVRCFVSIRLF | 0.0737 ± 0.012 |
| CGGLFDVALGVG | 0.477 ± 0.021 |
| CGGVQVWRVKVV | 0.18 ± 0.016 |
| CGSFWVNVLCAV | 0.2657 ± 0.0011 |
| CILYLSWIIFRA | 0.213 ± 0.034 |
| CLCLICFLCWFA | 0.387 ± 0.01 |
| CLLDVVMVVERG | 0.364 ± 0.035 |
| CPMFVKFFFCLY | 0.479 ± 0.013 |
| CRGLSWRMITCL | 0.125 ± 0.011 |
| CRLRYSILWFRL | 0.201 ± 0.016 |
| CRRQLKVLKSMS | 0.148 ± 0.021 |
| CSFHFSLFFLRV | 0.485 ± 0.042 |
| CSRVVGLFFLVV | 0.371 ± 0.0081 |
| CVCLWCFLVWAR | 0.259 ± 0.013 |
| CVCPFCVWVSCL | 0.242 ± 0.0047 |
| CVSFFRCLFLIV | 0.193 ± 0.0083 |
| CWYVCSFWPYVV | 0.0885 ± 0.0085 |
| DAGSSYRFFRFI | 0.315 ± 0.0095 |
| DFFTSFSLFFFL | 0.638 ± 0.051 |
| DLIGSVRRLFCV | 0.18 ± 0.0082 |
| DLLKAILKIKSL | 0.104 ± 0.0099 |
| DLQTVGLTRFIV | 0.149 ± 0.015 |
| DLRRYRTLIPCK | 0.2277 ± 0.00047 |

| Sequence | protein stability index |
| --- | --- |
| DPKQVRIQSSWL | 0.6273 ± 0.0026 |
| DVLLVVVLGRFL | 0.322 ± 0.043 |
| DVPLFLPLPVSV | 0.243 ± 0.0078 |
| ELDVRPMVFLVA | 0.295 ± 0.0069 |
| ESRDRRVGIANW | 0.648 ± 0.014 |
| FACLTPFCLCLT | 0.325 ± 0.005 |
| FALFCFVIFMSR | 0.277 ± 0.028 |
| FAVTRVHLACWG | 0.3297 ± 0.0031 |
| GFLGMFFFWFAL | 0.461 ± 0.012 |
| GGGGMGRRVGVG | 0.4009 ± 0.0015 |
| LCLPLYIRILSF | 0.161 ± 0.0023 |
| LPPTPPLSPPPH | 0.414 ± 0.0084 |
| LSPRPPAPYYSP | 0.676 ± 0.03 |
| PSPHRAPPGGHP | 0.673 ± 0.03 |
| RKKIRTYINENV | 0.271 ± 0.018 |
| RPPPTPRSVLLN | 0.265 ± 0.024 |
| SVPCWVFLFCLA | 0.184 ± 0.016 |
| TWGGGRVSLGGG | 0.363 ± 0.01 |
| VCNSIPLTPPPA | 0.6171 ± 0.00098 |
| VSGITLPFLMFH | 0.635 ± 0.0033 |
| VSGSFRVCFRVW | 0.538 ± 0.024 |
| VWWWGGVGWLMV | 0.386 ± 0.015 |
| YVLLDFFFFFLV | 0.211 ± 0.0032 |
